{
  "source": "paper PMC5426849",
  "note": "pKd: −log10 of the molar value.",
  "data": [
    {"target": "fluoresceinated cortactin phospho-Y482 peptide", "test": "fluorescence polarisation", "values": [
      {"substance": "Abl SH2 domain, monomeric, cleaved from GST (from UniProt P00519 127-217) (domain or fragment)", "pKd": "< 5.30"},
      {"substance": "PLCγ C-terminal SH2 domain, cleaved from GST (domain or fragment)", "pKd": "< 5.30"},
      {"substance": "PLCγ N-terminal SH2 domain, cleaved from GST (domain or fragment)", "pKd": "< 5.30"},
      {"substance": "p85α C-terminal SH2 domain, cleaved from GST (domain or fragment)", "pKd": "< 5.30"},
      {"substance": "p85α N-terminal SH2 domain, cleaved from GST (domain or fragment)", "pKd": "< 5.30"}
    ]}
  ]
}
